Assay results reported in patent US6328728A, “Composition and method for enhancing electrotransport agent delivery” (Alza Corporation, priority 1997, dated 2001).

Test: Electrophoretic mobility by capillary zone electrophoresis
Assay type: physicochemical
Conditions: for Electrophoretic Mobility (Average) / Electrophoretic Mobility: 32° C.
Procedure: Since electrophoretic mobility (ie, the ability of a drug/agent to migrate in an electric field) is an important aspect of electrotransport drug delivery, the electrophoretic mobility of the drug/agent being delivered is predictive of suitability for transdermal electrotransport delivery. Electrophoretic mobility measurements were performed using a capillary zone electrophoresis instrument (model 2100 P/ACE instrument, Beckman Instruments, Inc., Palo Alto, Calif.). At acid pH values DB-WAX, DB-1, DB-17 (J&W Scientific, Folsom, Calif.) capillary columns were used either with 50 or 100 micron internal diameter column and CElect H75 (Supelco, Bellefonte, Pa.) capillary column with a 75 micron internal diameter. At alkaline pH values uncoated silica capillaries of length 57 cm with an internal diameter of 75 microns were used with an applied voltage of 20 kV. If any electroosmotic flow was present, it was detected using a neutral marker such as 0.01% benzyl alcohol (SIGMA, St. Louis, Mo.) or 1/500 mesityl oxide (Applied Biosystems, Foster City, Calif.). The optimum voltage was determined by doing an Ohm's Law test on each buffer and capillary system. The temperature of the capillary columns was set at 32° C. and a two second pressure injection was done. A UV detector was used to monitor peptide and markers at either 214 or 280 nm.
Voltage injection had to be used for the 27 cm length column. The voltage applied varied depending on the capillary length.
The following equation was used to determine electrophoretic mobility μ. [formula]
If the electroosmotic flow is detected, the following equation can be used.
μpeptide =μtotal -μneutral marker
The measurement procedures described above were conducted on an aqueous solution of the protein insulinotropin, with TWEEN® 20 (MW=1126 g/mol) as the surfactant, with the following modifications. The insulinotropin donor solution concentration was 0.12 mg/mL. One test was run in 10 mM sodium borate at pH 9.0 and another test in 10 mM sodium chloroacetate at pH 3.5.
Fractional changes (%δ) are defined as the difference between the reading at a given surfactant concentration (Ec) minus the reading at zero surfactant (E0), the quantity divided by the difference between the reading at saturated surfactant concentration (Es) minus the reading at zero surfactant (E0), i. e. %δ=(Ec -E0)/(Es-E0).
The measurement procedures described earlier were conducted in this example on an aqueous solution containing insulinotropin as the agent and dodecyl trimethyl ammonium chloride (DTAC) as the ionic surfactant with the following modifications. […]
The same measurement procedures were conducted using an aqueous solution of salmon calcitonin as the agent and the zwitterionic dodecyl sulfobetaine as the surfactant with the following modifications. The temperature was initially 32° C., the surfactant concentration was varied up to 30 mM, and the calcitonin concentration was 0.06 to 0.08 mM. Tables 7, 8, and 9 below provide the results obtained in terms of polypeptide ellipticity expressed as a function of zwitterionic surfactant concentration at pH 3.5 in 12 mM sodium chloroacetate (Table 7), 5.0 in 4 mM piperazine HCI (Table 8), and 6.5 in 15 mM sodium cacodylate (Table 9), respectively. Table 8, in addition, provides the results obtained on electrophoretic mobility and HIC retention time in a phenyl superose column at pH 5.0.

[1] = pH 3.5, 10 mM sodium chloroacetate, TWEEN 20 0
[2] = pH 3.5, 10 mM sodium chloroacetate, TWEEN 20 0.133 mM
[3] = pH 3.5, 10 mM sodium chloroacetate, TWEEN 20 0.266 mM
[4] = pH 3.5, 10 mM sodium chloroacetate, TWEEN 20 0.515 mM
[5] = pH 3.5, 10 mM sodium chloroacetate, TWEEN 20 1.00 mM
[6] = pH 3.5, 10 mM sodium chloroacetate, TWEEN 20 2.28 mM
[7] = pH 3.5, 10 mM sodium chloroacetate, TWEEN 20 4.44 mM
[8] = pH 9.0, 10 mM sodium borate, TWEEN 20 0
[9] = pH 9.0, 10 mM sodium borate, TWEEN 20 0.133 mM
[10] = pH 9.0, 10 mM sodium borate, TWEEN 20 0.266 mM
[11] = pH 9.0, 10 mM sodium borate, TWEEN 20 0.515 mM
[12] = pH 9.0, 10 mM sodium borate, TWEEN 20 1.00 mM
[13] = pH 9.0, 10 mM sodium borate, TWEEN 20 2.28 mM
[14] = pH 9.0, 10 mM sodium borate, TWEEN 20 4.44 mM
[15] = pH 9.0, 10 mM sodium borate, TWEEN 20 8.88 mM
[16] = pH 9.0, 10 mM sodium borate, TWEEN 20 13.3 mM
[17] = pH 9.0, 10 mM sodium borate, TWEEN 20 20.0 mg/mL
[18] = pH 9.0, 10 mM sodium borate, TWEEN 20 25.0 mg/mL

Substance: Insulinotropin: the protein insulinotropin
- Electrophoretic Mobility (Average) (pH 3.5, 10 mM sodium chloroacetate, DTAC 0): 1.80 cm^2 /V-s × 10^-4
- Electrophoretic Mobility (Average) (pH 3.5, 10 mM sodium chloroacetate, DTAC 0.83 mM): 1.82 cm^2 /V-s × 10^-4
- Electrophoretic Mobility (Average) (pH 3.5, 10 mM sodium chloroacetate, DTAC 1.64 mM): 1.81 cm^2 /V-s × 10^-4
- Electrophoretic Mobility (Average) (pH 3.5, 10 mM sodium chloroacetate, DTAC 20.0 mM): 3.46 cm^2 /V-s × 10^-4
- Electrophoretic Mobility (Average) (pH 3.5, 10 mM sodium chloroacetate, DTAC 25.0 mM): 3.33 cm^2 /V-s × 10^-4
- Electrophoretic Mobility [1]: -1.8 cm^2 /Vs ×10^-4
- Electrophoretic Mobility [2]: -1.72 cm^2 /Vs ×10^-4
- Electrophoretic Mobility [3]: -1.58 cm^2 /Vs ×10^-4
- Electrophoretic Mobility [4]: -1.32 cm^2 /Vs ×10^-4
- Electrophoretic Mobility [5]: -1.14 cm^2 /Vs ×10^-4
- Electrophoretic Mobility [6]: -1.08 cm^2 /Vs ×10^-4
- Electrophoretic Mobility [7]: -1.01 cm^2 /Vs ×10^-4
- Electrophoretic Mobility, fractional change (% δ) [1]: 0
- Electrophoretic Mobility, fractional change (% δ) [2]: 0.10
- Electrophoretic Mobility, fractional change (% δ) [3]: 0.28
- Electrophoretic Mobility, fractional change (% δ) [4]: 0.61
- Electrophoretic Mobility, fractional change (% δ) [5]: 0.84
- Electrophoretic Mobility, fractional change (% δ) [6]: 0.91
- Electrophoretic Mobility, fractional change (% δ) [7]: 1.00
- Electrophoretic Mobility [8]: -1.06 cm^2 Vs × 10^-4
- Electrophoretic Mobility [9]: -1.05 cm^2 Vs × 10^-4
- Electrophoretic Mobility [10]: -1.01 cm^2 Vs × 10^-4
- Electrophoretic Mobility [11]: -1.00 cm^2 Vs × 10^-4
- Electrophoretic Mobility [12]: -0.89 cm^2 Vs × 10^-4
- Electrophoretic Mobility [13]: -0.73 cm^2 Vs × 10^-4
- Electrophoretic Mobility [14]: -0.62 cm^2 Vs × 10^-4
- Electrophoretic Mobility [15]: -0.61 cm^2 Vs × 10^-4
- Electrophoretic Mobility [16]: -0.55 cm^2 Vs × 10^-4
- Electrophoretic Mobility [17]: -0.58 cm^2 Vs × 10^-4
- Electrophoretic Mobility [18]: -0.53 cm^2 Vs × 10^-4
- Electrophoretic Mobility, fractional change (% δ) [8]: 0
- Electrophoretic Mobility, fractional change (% δ) [9]: 0.02
- Electrophoretic Mobility, fractional change (% δ) [10]: 0.09
- Electrophoretic Mobility, fractional change (% δ) [11]: 0.11
- Electrophoretic Mobility, fractional change (% δ) [12]: 0.32
- Electrophoretic Mobility, fractional change (% δ) [13]: 0.62
- Electrophoretic Mobility, fractional change (% δ) [14]: 0.83
- Electrophoretic Mobility, fractional change (% δ) [15]: 0.85
- Electrophoretic Mobility, fractional change (% δ) [16]: 0.96
- Electrophoretic Mobility, fractional change (% δ) [17]: 0.91
- Electrophoretic Mobility, fractional change (% δ) [18]: 1.00

Substance: Salmon Calcitonin [reference compound]
- Electrophoretic Mobility (pH 5.0, 4 mM piperazine-HCl, dodecyl sulfobetaine 0, calcitonin 0.076 mM): 2.4 × 10^-4 cm^2 /V-sec
- Electrophoretic Mobility (pH 5.0, 4 mM piperazine-HCl, dodecyl sulfobetaine 0.83 mM, calcitonin 0.076 mM): 2.3 × 10^-4 cm^2 /V-sec
- Electrophoretic Mobility (pH 5.0, 4 mM piperazine-HCl, dodecyl sulfobetaine 1.64 mM, calcitonin 0.075 mM): 2.2 × 10^-4 cm^2 /V-sec
- Electrophoretic Mobility (pH 5.0, 4 mM piperazine-HCl, dodecyl sulfobetaine 3.23 mM, calcitonin 0.074 mM): 2.2 × 10^-4 cm^2 /V-sec
- Electrophoretic Mobility (pH 5.0, 4 mM piperazine-HCl, dodecyl sulfobetaine 6.25 mM, calcitonin 0.072 mM): 1.7 × 10^-4 cm^2 /V-sec
- Electrophoretic Mobility (pH 5.0, 4 mM piperazine-HCl, dodecyl sulfobetaine 7.69 mM, calcitonin 0.071 mM): 1.5 × 10^-4 cm^2 /V-sec
- Electrophoretic Mobility (pH 5.0, 4 mM piperazine-HCl, dodecyl sulfobetaine 9.77 mM, calcitonin 0.069 mM): 1.6 × 10^-4 cm^2 /V-sec
- Electrophoretic Mobility (pH 5.0, 4 mM piperazine-HCl, dodecyl sulfobetaine 12.4 mM, calcitonin 0.067 mM): 1.4 × 10^-4 cm^2 /V-sec
- Electrophoretic Mobility (pH 5.0, 4 mM piperazine-HCl, dodecyl sulfobetaine 18.4 mM, calcitonin 0.062 mM): 0.96 × 10^-4 cm^2 /V-sec
- Electrophoretic Mobility (pH 5.0, 4 mM piperazine-HCl, dodecyl sulfobetaine 26.4 mM, calcitonin 0.056 mM): 0.88 × 10^-4 cm^2 /V-sec
